Laboratory results from patent US20170174756A1 (AstraZeneca / MedImmune, published 2017).
“And” between values parts separate entries of the source, which are not always exact repeats. Equal values may be shown once.

Target: T1, Biotin Ang2 (R & D Systems) (UniProt O15123 19-496, biotinylated (sites not given))
T1 sequence (looked up): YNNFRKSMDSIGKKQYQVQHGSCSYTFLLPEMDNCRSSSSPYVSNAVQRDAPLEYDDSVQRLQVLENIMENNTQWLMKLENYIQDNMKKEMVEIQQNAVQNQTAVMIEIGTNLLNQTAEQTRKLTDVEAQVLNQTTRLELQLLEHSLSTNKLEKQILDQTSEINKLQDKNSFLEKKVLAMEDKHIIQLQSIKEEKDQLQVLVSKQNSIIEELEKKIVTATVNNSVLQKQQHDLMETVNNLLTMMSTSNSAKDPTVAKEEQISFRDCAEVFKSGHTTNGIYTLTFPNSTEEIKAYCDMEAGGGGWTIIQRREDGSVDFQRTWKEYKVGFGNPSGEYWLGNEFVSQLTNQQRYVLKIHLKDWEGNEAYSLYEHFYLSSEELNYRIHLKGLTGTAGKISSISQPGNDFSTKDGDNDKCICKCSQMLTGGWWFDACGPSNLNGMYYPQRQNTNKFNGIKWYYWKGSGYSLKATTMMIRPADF
Assay: competition ELISA: Tie-2 Fc coated on the plate, antibody varied, blocked ligand binding is Biotin Ang2 to Tie-2 Fc, streptavidin HRP, O.D. 450 nm
Experimental: The following day, plates were blocked for 1 hour at room temperature with 200 μl of phosphate buffered saline (PBS) (Invitrogen, Carlsbad, Calif.) containing 0.5% bovine serum albumin (BSA) (Sigma, St. Louis, Mo.) and 0.1% Tween-20 (Sigma, St. Louis, Mo.). Plates were washed 3 times with wash buffer (PBS containing 0.05% Tween-20). […] Plates were washed 3 times with wash buffer. Following the wash, 100 ul of 1:5000 streptavidin HRP (Pierce, Rockford, Ill.) dilution in wash buffer were added and incubated for 1 hour at room temperature. Plates were washed 3 times with wash buffer. Plates were developed by adding 100 μl of TMB peroxidase substrate (KPL, Gaithersburg, Md.) for 5 minutes. The reaction was stopped by adding 100 μl/well of 1M phosphoric acid. Optical densities were measured at 450 nm with a microplate reader (Molecular Devices, Sunnyvale, Calif.).

B1: Ang-2 antibody 3.19.3 (antibody, V domains shown)
VH: QVQLVESGGGVVQPGRSLRLSCAASGFTFTNYGMHWGRQAPGKGLEWVAVISHDGNNKYYVDSVKGRFTISRDNSKNTLYLQMNSLRAEDTAVYYCAREGIDFWSGLNWFDPWGQGTLVTVSS
VL: EIVLTQSPGTLSLSPGERATLSCRASQSITGSYLAWYQQKPGQAPRLLICGASSWATGIPDRFSGSGSGTDFTLTISRLEPEDFAVYYCQQYSSSPITFGQGTRLEIKR
notes: Fully human monoclonal antibody; also called WT
  IC50 (read off the curve): ~0.1 µg/mL and ~0.2 µg/mL
